B1: KaScape n=4 member GACT (dsDNA)
DNA 1: GCGCTGACTAGGAGTGGGATCCGGGGGGGG
DNA 2: CCCCCCCCGGATCCCACTCCTAGTCAGCGC
B2: type 1 (GACCG) (dsDNA)
DNA 1: GCGCTGACCGAGGAG
DNA 2: CTCCTCGGTCAGCGC
B3: type 2 (GACCT) (dsDNA)
DNA 1: GCGCTGACCTAGGAG
DNA 2: CTCCTAGGTCAGCGC
B4: type 3 (GACCC) (dsDNA)
DNA 1: GCGCTGACCCAGGAG
DNA 2: CTCCTGGGTCAGCGC
B5: type 4 (GACCA) (dsDNA)
DNA 1: GCGCTGACCAAGGAG
DNA 2: CTCCTTGGTCAGCGC
B6: type 5 (AGACC) (dsDNA)
DNA 1: GCGCTAGACCAGGAG
DNA 2: CTCCTGGTCTAGCGC
B7: type 6 (TGACC) (dsDNA)
DNA 1: GCGCTTGACCAGGAG
DNA 2: CTCCTGGTCAAGCGC
B8: type 7 (CGACC) (dsDNA)
DNA 1: GCGCTCGACCAGGAG
DNA 2: CTCCTGGTCGAGCGC
B9: type 8 (GGACC) (dsDNA)
DNA 1: GCGCTGGACCAGGAG
DNA 2: CTCCTGGTCCAGCGC

The binders below were run against T1, AtWRKY1N (N-terminal WRKY DNA-binding domain) (UniProt Q9SI37 105-169) (assay: KaScape pull-down + NGS; random n=4 pool; second strongest; KaScape: 2e-11 mol protein and 1e-10 mol dsDNA in 2 mL, 30 min, Ni beads 1 h at 4 C, washes in buffer C (25 mM HEPES pH 7.0, 100 mM NaCl); EMSA buffer not given). Conditions: protein: recombinant; tags: C-terminal His-tag (pET21b).
T1 sequence (Q9SI37 105-169): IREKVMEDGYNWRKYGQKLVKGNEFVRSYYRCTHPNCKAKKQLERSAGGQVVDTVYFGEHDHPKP
B1: binds.

What follows are binders tested against T1, AtWRKY1N (N-terminal WRKY DNA-binding …) (assay: EMSA; protein:DNA 1:1 and 2:1; KaScape: 2e-11 mol protein and 1e-10 mol dsDNA in 2 mL, 30 min, Ni beads 1 h at 4 C, washes in buffer C (25 mM HEPES pH 7.0, 100 mM NaCl); EMSA buffer not given). Conditions: protein: recombinant; tags: C-terminal His-tag (pET21b).
B2: binds.
B3: binds.
B4: binds.
B5: binds.
B6: binds.
B7: binds.
B8: no binding.
B9: binds.

— paper PMC10547764, “KaScape: a sequencing-based method for global characterization of protein‒DNA binding affinity”
